{"source": "paper doi:10.1101/2023.06.15.545135", "about": "“Structure of mechanically activated ion channel OSCA2.3 reveals mobile elements in the transmembrane domain” (bioRxiv, 2023)", "molecules": {"B1": {"name": "Arabidopsis thaliana OSCA2.3 (natural protein, UniProt Q8GUH7 1-703, looked up)", "chain": "MLLSALLTSVGINLGLCFLFFTLYSILRKQPSNVTVYGPRLVKKDGKSQQSNEFNLERLLPTAGWVKRALEPTNDEILSNLGLDALVFIRVFVFSIRVFSFASVVGIFILLPVNYMGTEFEEFFDLPKKSMDNFSISNVNDGSNKLWIHFCAIYIFTAVVCSLLYYEHKYILTKRIAHLYSSKPQPQEFTVLVSGVPLVSGNSISETVENFFREYHSSSYLSHIVVHRTDKLKVLMNDAEKLYKKLTRVKSGSISRQKSRWGGFLGMFGNNVDVVDHYQKKLDKLEDDMRLKQSLLAGEEVPAAFVSFRTRHGAAIATNIQQGIDPTQWLTEAAPEPEDVHWPFFTASFVRRWISNVVVLVAFVALLILYIVPVVLVQGLANLHQLETWFPFLKGILNMKIVSQVITGYLPSLIFQLFLLIVPPIMLLLSSMQGFISHSQIEKSACIKLLIFTVWNSFFANVLSGSALYRVNVFLEPKTIPRVLAAAVPAQASFFVSYVVTSGWTGLSSEILRLVPLLWSFITKLFGKEDDKEFEVPSTPFCQEIPRILFFGLLGITYFFLSPLILPFLLVYYCLGYIIYRNQLLNVYAAKYETGGKFWPIVHSYTIFSLVLMHIIAVGLFGLKELPVASSLTIPLPVLTVLFSIYCQRRFLPNFKSYPTQCLVNKDKADEREQNMSEFYSELVVAYRDPALSASQDSRDISP", "notes": "OSCA2.3 of Arabidopsis thaliana, UniProt Q8GUH7, full-length, human codon optimized cDNA; 703 residues as printed; C-terminal PreScission Protease site with 4-5 residue linkers before the tags; After PreScission cleavage, remnants of the linker and of the cleavage site stay at the C-terminus; Final model holds residues 3-26, 65-115, 129-225, 302-368, 410-517 and 536-691; also called AtOSCA2.3; …"}, "B2": {"name": "Arabidopsis thaliana OSCA1.2 (natural protein)", "chain": "MATLQDIGVSAGINILSAFVFFIIFAVLRLQPFNDRVYFSKWYLKGLRSSPARGGAFAQRFVNLDFRSYMKFLNWMPEALKMPEPELIDHAGLDSVVYLRIYWLGLKIFTPIAVLAWAVLVPVNWTNNTLEMAKQLRNVTSSDIDKLSVSNIPEYSMRFWTHIVMAYAFTIWTCYVLMKEYETIANMRLQFVASEARRPDQFTVLVRNVPPDADESVSELVEHFFLVNHPDHYLTHQVVCNANKLADLVKKKKKLQNWLDYYQLKYARNNSQRIMVKLGFLGLWGQKVDAIEHYIAEIDKISKEISKEREEVVNDPKAIMPAAFVSFKTRWAAAVCAQTQQTRNPTQWLTEWAPEPRDVFWSNLAIPYVSLTVRRLIMHVAFFFLTFFFIVPIAFVQSLATIEGIVKAAPFLKFIVDDKFMKSVIQGFLPGIALKLFLAFLPSILMIMSKFEGFTSISSLERRAAFRYYIFNLVNVFLASVIAGAAFEQLNSFLNQSANQIPKTIGVAIPMKATFFITYIMVDGWAGVAGEILMLKPLIMFHLKNAFLVKTDKDREEAMDPGSIGFNTGEPRIQLYFLLGLVYAPVTPMLLPFILVFFALAYIVYRHQIINVYNQEYESAAAFWPDVHGRVIAALVISQLLLMGLLGTKHAALAAPFLIALPVLTIGFHHFCKGRYEPAFIRYPLQEAMMKDTLETAREPNLNLKGYLQNAYVHPVFKGDEDDYDIDDKLGKFEDEAIIVPTKRQSRRNTPAPSIISGDDSPSLPFSGKLV", "notes": "OSCA1.2 of Arabidopsis thaliana, UniProt Q5XEZ5; Final model holds residues 2-50, 71-121, 157-266, 290-487, 505-648, 654-718; also called AtOSCA1.2"}}, "key": {"[1]": {"target": "Arabidopsis thaliana OSCA1.2 (Arabidopsis thaliana) (UniProt Q5XEZ5)", "assay": "cryo-EM structure; OSCA1.2 reconstituted in peptidiscs, ~8 mg/mL; 2.8 Å map, C2 symmetry imposed"}, "[2]": {"target": "the molecule itself", "assay": "cryo-EM structure; OSCA2.3 reconstituted in peptidiscs, ~3.6 mg/mL, TBS with 2 mM DTT; 2.7 Å map, C2 symmetry imposed"}, "[3]": {"target": "the molecule itself", "assay": "cryo-EM structure; OSCA1.2 reconstituted in peptidiscs, ~8 mg/mL; 2.8 Å map, C2 symmetry imposed"}}}
{"molecule": "NSPr peptide (peptidisc peptide)", "values": [{"measurement": "stoichiometry N", "setting": "[1]", "value": 4, "unit": "per protomer"}]}
{"molecule": "B1", "values": [{"measurement": "stoichiometry N", "setting": "[2]", "value": 2}]}
{"molecule": "B2", "values": [{"measurement": "binding result", "setting": "[3]", "value": "binds"}]}
